Where a chain is given by its changes, count along the chain named. Names may count otherwise. “And” between values parts separate entries of the source, which are not always exact repeats. Equal values may be shown once.
Legend:
[1] = target: T1, full-length yeast Hsp90 (Hsp82) (yeast, UniProt P02829 1-709); test: AUC
[2] = target: T1, full-length yeast Hsp90 (Hsp82); test: fluorescence polarisation

T1 sequence (P02829 whole entry): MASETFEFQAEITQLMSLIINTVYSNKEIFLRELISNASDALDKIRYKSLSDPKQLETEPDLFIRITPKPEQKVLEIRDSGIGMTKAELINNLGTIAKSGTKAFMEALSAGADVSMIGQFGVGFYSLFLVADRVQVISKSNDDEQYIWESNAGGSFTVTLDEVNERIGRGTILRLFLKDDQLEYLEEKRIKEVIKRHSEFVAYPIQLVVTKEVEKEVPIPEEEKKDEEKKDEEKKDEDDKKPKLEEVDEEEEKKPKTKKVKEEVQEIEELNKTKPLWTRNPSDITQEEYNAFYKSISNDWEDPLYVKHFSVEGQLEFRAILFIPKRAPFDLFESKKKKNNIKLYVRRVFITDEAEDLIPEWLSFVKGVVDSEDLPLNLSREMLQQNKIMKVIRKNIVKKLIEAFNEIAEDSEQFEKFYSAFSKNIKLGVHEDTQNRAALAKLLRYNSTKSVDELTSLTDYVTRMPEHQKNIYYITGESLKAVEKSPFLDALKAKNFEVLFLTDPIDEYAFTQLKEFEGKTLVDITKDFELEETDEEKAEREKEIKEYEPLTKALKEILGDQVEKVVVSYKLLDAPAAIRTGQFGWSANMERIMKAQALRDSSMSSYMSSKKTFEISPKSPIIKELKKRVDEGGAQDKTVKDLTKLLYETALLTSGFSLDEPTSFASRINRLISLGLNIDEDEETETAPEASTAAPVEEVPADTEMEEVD

B1: MR-LBD (C805S/A841C) (domain or fragment)
chain: APTKEPSVNSALVPQLTSITHALTPSPAMILENIEPETVYAGYDNSKPDTAESLLSTLNRLAAKQMIQVVKWAKVLPGFKNLPLEDQITLIQYSWMSLSSFALSWRSYKHTNSQLLYFAPDLVFNEEKMHQSCMYELCQGMRQISLQFVRLQLTFEEYSIMKVLLLLSTVPKDGLKSQAAFEEMRTNYIKELRKMVTKCPNSSGQSWQRFYQLTKLLDSMHDLVSDLLEFCFYTFRESQALKVEFPAMLVEIITDQLPKVESGNAKPLYFHRK
B1: binds [1].

B2: rat MR-LBD (amino acids 709 to 981; C805S) (domain or fragment)
chain: B1 chain with C133A
modifications: ATTO 488 maleimide, randomly on cysteine residues (anisotropy and AUC)
For B2, the Kd [2] was 5.7 µM and 5.3 µM and 2.2 µM and 1.9 µM.

B3: p53-DBD (C124S/C229S/C277S) (domain or fragment)
chain: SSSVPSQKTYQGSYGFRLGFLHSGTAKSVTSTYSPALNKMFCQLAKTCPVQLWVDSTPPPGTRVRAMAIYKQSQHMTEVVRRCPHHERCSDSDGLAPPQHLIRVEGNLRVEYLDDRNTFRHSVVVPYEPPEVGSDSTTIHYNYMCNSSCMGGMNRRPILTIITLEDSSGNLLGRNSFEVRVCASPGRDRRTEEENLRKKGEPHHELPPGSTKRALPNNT
B3: binds [1].
